A short description of this data set: self-splicing fitness, log relative to wild type (ln ratio); higher = more splicing; Tetrahymena group I intron in knt gene, E. coli kanamycin selection, DiMSum; sequences stand for … in CUCUCU…GGAGGGAAAAGUUAUCAGGCAUGCACCUGGUAGCUAGUCUUUAAACCAAUAGAUUGCAUCGGUUUAAAAGGCAAGACCGUCAAAUUGCGGGAAAGGGGUCAACAGCCGUUCAGUACCAAGUCUCAGGGGAAACUUUGAGAUGGCCUUGCAAAGGGUAUGGUAAUAAGCUGACGGACAUGGUCCUAACCACGCAGCCAAGUCCUAAGUCAACAGAUCUUCUGUUGAUAUGGAUGCAGUUCACAGACUAAAUGUCGGUCGGGGAAGAUGUAUUCUUCUCAUAAGAUAUAGUCGGACCUCUCCUUAAUGGGAGCUAGCGGAUGAAGUGAUGCAACACUGGAGCCGCUGGGAACUAAUUUGUAUGCGAAAGUAUAUUGAUUAGUUUUGGAGUACUCGUGGUCG
In outline:
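Fitness was computed with DiMSum as the error-weighted combination of replicate fold changes, kanamycin versus none, each normalised to wild type. The library randomised all eight intron nucleotides of the P1ex region, with the intron placed in the knt kanamycin-resistance gene on pET-22b(+) in E. coli BL21(DE3). Six replicate transformations were grown overnight at 37°C or 30°C on LB agar with or without 25 μg/mL kanamycin, plus 100 μg/mL carbenicillin, 50 μM IPTG and 0.2% rhamnose. Pooled colonies were amplicon-sequenced on an Illumina HiSeq 2500.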

This is an account of results in the supplement of paper PMC7877785.

± gives the uncertainty stated by the source.

Turning to GCAUAGCAAUAUUACGCCUA, the “self-splicing fitness (ln)” value runs as follows: (30 °C) -1.83 ± 0.13; (37 °C) -1.39 ± 0.12.
Consider GCAUAGCAAUAUUACGCGAC, for which the “self-splicing fitness (ln)” value runs as follows: (30 °C) -2.79 ± 0.16; (37 °C) 0.0921 ± 0.13.
As for GCAUAGCAAUAUUACGCGUG, the “self-splicing fitness (ln)” value is, setting by setting: (30 °C) -3.46 ± 0.2; (37 °C) -2.64 ± 0.28.
GCAUAGCAAUAUUACGCUUG: the “self-splicing fitness (ln)” value (30 °C) was -3.29 ± 0.21 and the “self-splicing fitness (ln)” value (37 °C) is -2.64 ± 0.31.
With GCAUAGCAAUAUUACGGAGA, the “self-splicing fitness (ln)” value runs as follows: (30 °C) -4.01 ± 0.37; (37 °C) -3.02 ± 0.33.
The corresponding values for GCAUAGCAAUAUUACGGAGU are -3.52 ± 0.14 and -1.86 ± 0.11.
The corresponding values for GCAUAGCAAUAUUACGGCCC are -0.542 ± 0.32 and -0.431 ± 0.37.
In the case of GCAUAGCAAUAUUACGGGUC, the “self-splicing fitness (ln)” value was -3.17 ± 0.14 (30 °C) and -2.71 ± 0.17 (37 °C).
As to GCAUAGCAAUAUUACGGUGU, the “self-splicing fitness (ln)” value is -4.14 ± 0.23 (30 °C) and -2.47 ± 0.2 (37 °C).
The matching figures for GCAUAGCAAUAUUACGUAAA: -2.43 ± 0.074 and -1.05 ± 0.08.
With GCAUAGCAAUAUUACGUAUU, the “self-splicing fitness (ln)” value (30 °C) is -3.09 ± 0.16 and the “self-splicing fitness (ln)” value (37 °C) was -2.04 ± 0.17.
The corresponding values for GCAUAGCAAUAUUACGUCCU are -1.16 ± 0.12 and -0.534 ± 0.15.
As for GCAUAGCAAUAUUACGUCUA, the “self-splicing fitness (ln)” value is -0.451 ± 0.14 (30 °C) and -0.993 ± 0.13 (37 °C).
The corresponding values for GCAUAGCAAUAUUACGUGCG are -2.26 ± 0.1 and -1.91 ± 0.14.
The corresponding values for GCAUAGCAAUAUUACGUUAU are -2.61 ± 0.16 and -3.08 ± 0.27.
The corresponding values for GCCAAGCAAUAUUACGAAGC are -2.7 ± 0.12 and -2.51 ± 0.17.
In the case of GCCAAGCAAUAUUACGACAU, the “self-splicing fitness (ln)” value reads like this: (30 °C) -2.357 ± 0.015; (37 °C) -1.37 ± 0.033.
On to GCCAAGCAAUAUUACGACGG, for which the “self-splicing fitness (ln)” value (30 °C) was -3.8 ± 0.23 and the “self-splicing fitness (ln)” value (37 °C) is -2.55 ± 0.21.
The matching figures for GCCAAGCAAUAUUACGAUAG: -3.28 ± 0.36 and -2.43 ± 0.25.
The corresponding values for GCCAAGCAAUAUUACGAUCU are -1.94 ± 0.13 and -0.903 ± 0.098.
The matching figures for GCCAAGCAAUAUUACGAUUC: -0.96 ± 0.062 and -0.482 ± 0.082.
Take GCCAAGCAAUAUUACGCACU: the “self-splicing fitness (ln)” value (30 °C) is -0.915 ± 0.077 and the “self-splicing fitness (ln)” value (37 °C) is -0.196 ± 0.097.
The matching figures for GCCAAGCAAUAUUACGCAUU: -1.35 ± 0.072 and -0.715 ± 0.081.
The corresponding values for GCCAAGCAAUAUUACGCCGG are -2.18 ± 0.26 and -2.13 ± 0.4.
The corresponding values for GCCAAGCAAUAUUACGCGCG are -1.87 ± 0.13 and -0.932 ± 0.14.
With GCCAAGCAAUAUUACGCGGC, the “self-splicing fitness (ln)” value is, setting by setting: (30 °C) -3.04 ± 0.22; (37 °C) -3.03 ± 0.43.
For the sequence GCCAAGCAAUAUUACGCGUU, the “self-splicing fitness (ln)” value (30 °C) was -0.424 ± 0.059 and the “self-splicing fitness (ln)” value (37 °C) was 0.358 ± 0.079.
The matching figures for GCCAAGCAAUAUUACGGAAG: -3.55 ± 0.34 and -2.57 ± 0.33.
For the sequence GCCAAGCAAUAUUACGGAAU, the “self-splicing fitness (ln)” value (30 °C) was -1.8 ± 0.15 and the “self-splicing fitness (ln)” value (37 °C) was -0.618 ± 0.15.
In the case of GCCAAGCAAUAUUACGGACG, the “self-splicing fitness (ln)” value is, setting by setting: (30 °C) -1.6 ± 0.14; (37 °C) 0.0859 ± 0.18.
The matching figures for GCCAAGCAAUAUUACGGCGC: -1.36 ± 0.11 and -0.697 ± 0.15.
The corresponding values for GCCAAGCAAUAUUACGGGAU are -0.936 ± 0.075 and -0.693 ± 0.099.
The matching figures for GCCAAGCAAUAUUACGGGGC: -3.69 ± 0.22 and -2.85 ± 0.27.
